From PMC3247260, “Domain Analysis Reveals That a Deubiquitinating Enzyme USP13 Performs Non-Activating Catalysis for Lys63-Linked Polyubiquitin” (PLoS ONE, 2011)
Numbering of substitutions follows the chain as printed. Numbers in names are those of the source.

Tests used:
Settings in all cases: both partners purified
GST-fused Ub = biological target: T1, GST-fused Ub (UniProt P0CG48 1-76); assay: pull-down; GST-fused Ub, ISG15, SUMO1 or SUMO2 loaded on glutathione agarose, USP13 or USP13-UBA12 (~100 µM) added; 1-hr incubation, washed three times, eluted by GSH buffer; SDS-PAGE with Coomassie blue staining
T1 construct: ubiquitin (Ub); cDNA inserted into pGEX-4T-3; also called GST-Ub; source: E. coli BL21, purified (glutathione agarose)

linear diUb = biological target: T2, linear diUb (UniProt P0CG48 1-76; P0CG48 1-76); assay: ITC; USP13-UBA12 (1.25 mM stock) injected into K63-, K48-, linear diUb (0.1 mM) or monoUb (0.2 mM), 25 injections of 1.5 µL; 50 mM Tris, 150 mM NaCl, pH 7.5; 25°C
T2 construct: ubiquitin, first unit of the linear (head-to-tail) dimer; ubiquitin, second unit of the linear (head-to-tail) dimer; also called linear linked diUb

ubiquitin (Ub) [1] = biological target: T3, ubiquitin (Ub) (UniProt P0CG48 1-76); assay: NMR titration; 15N-labeled USP13-UBA12 or USP5-ZnF (~0.2 mM) titrated with Ub (or ISG15), 1H-15N HSQC spectra; 20 mM phosphate, 50 mM NaCl, pH 6.5
T3 construct: ubiquitin, free monomer; only a GST-fused Ub construct is named in the methods; also called free Ub; monoUb

ubiquitin (Ub) [2] = biological target: T3, ubiquitin (Ub); assay: ITC; Ub (1 mM stock) injected into USP13-ZnF, USP5-ZnF or its mutants (50 µM), 25 injections of 8 µL; 50 mM Tris, 150 mM NaCl, pH 7.5, 1 mM DTT; 25°C

B1: USP13 (residues 21-863) (enzyme, human, UniProt Q92995 21-863, looked up)
chain: AGDIGELLVPHMPTIRVPRSGDRVYKNECAFSYDSPNSEGGLYVCMNTFLAFGREHVERHFRKTGQSVYMHLKRHVREKVRGASGGALPKRRNSKIFLDLDTDDDLNSDDYEYEDEAKLVIFPDHYEIALPNIEELPALVTIACDAVLSSKSPYRKQDPDTWENELPVSKYANNLTQLDNGVRIPPSGWKCARCDLRENLWLNLTDGSVLCGKWFFDSSGGNGHALEHYRDMGYPLAVKLGTITPDGADVYSFQEEEPVLDPHLAKHLAHFGIDMLHMHGTENGLQDNDIKLRVSEWEVIQESGTKLKPMYGPGYTGLKNLGNSCYLSSVMQAIFSIPEFQRAYVGNLPRIFDYSPLDPTQDFNTQMTKLGHGLLSGQYSKPPVKSELIEQVMKEEHKPQQNGISPRMFKAFVSKSHPEFSSNRQQDAQEFFLHLVNLVERNRIGSENPSDVFRFLVEERIQCCQTRKVRYTERVDYLMQLPVAMEAATNKDELIAYELTRREAEANRRPLPELVRAKIPFSACLQAFSEPENVDDFWSSALQAKSAGVKTSRFASFPEYLVVQIKKFTFGLDWVPKKFDVSIDMPDLLDINHLRARGLQPGEEELPDISPPIVIPDDSKDRLMNQLIDPSDIDESSVMQLAEMGFPLEACRKAVYFTGNMGAEVAFNWIIVHMEEPDFAEPLTMPGYGGAASAGASVFGASGLDNQPPEEIVAIITSMGFQRNQAIQALRATNNNLERALDWIFSHPEFEEDSDFVIEMENNANANIISEAKPEGPRVKDGSGTYELFAFISHMGTSTMSGHYICHIKKEGRWVIYNDHKVCASERPPKDLGYMYFYRRIPS
notes: Ubiquitin-specific protease 13 (USP13, isoT3), human, residues 21-863, cloned into pET-32M; The results call it full-length USP13; the methods give residues 21-863; also called full-length USP13; source: E. coli BL21, purified (Ni-NTA agarose, size-exclusion chromatography)
B1: binds (GST-fused Ub).

B2: tandem UBA domains of USP13 (USP13-UBA12, residues 652-776) (domain or fragment, human, UniProt Q92995 652-776, looked up)
chain: DIDESSVMQLAEMGFPLEACRKAVYFTGNMGAEVAFNWIIVHMEEPDFAEPLTMPGYGGAASAGASVFGASGLDNQPPEEIVAIITSMGFQRNQAIQALRATNNNLERALDWIFSHPEFEEDSDF
notes: USP13, human, tandem UBA domains (UBA1 and UBA2), residues 652-776, cloned into pET-32M; 15N-labelled in the NMR titrations; source: E. coli BL21, purified (Ni-NTA agarose, size-exclusion chromatography)
B2: binds (GST-fused Ub); binds (linear diUb); binds (ubiquitin (Ub) [1]).

B3: USP5-ZnF R222W (domain or fragment, human, UniProt P45974 169-289, looked up)
chain: WDGEVRQVSKHAFSLKQLDNPARIPPCGWKCSKCDMRENLWLNLTDGSILCGRWYFDGSGGNNHAVEHYRETGYPLAVKLGTITPDGADVYSYDEDDMVLDPSLAEHLSHFGIDMLKMQKT
notes: USP5, human, ZnF domain, residues 169-289, point mutant in pET-M; source: E. coli BL21, purified (Ni-NTA agarose, size-exclusion chromatography)
Work on B3 yielded a Kd (ubiquitin (Ub) [2]) of 9.1 µM.

B4: USP5-ZnF R222W/Y223F (domain or fragment, human, UniProt P45974 169-289, looked up)
chain: B3 chain with Y55F
notes: as for B3
In the case of B4, the Kd (ubiquitin (Ub) [2]) is reported as 16 µM.

B5: USP5-ZnF R221K (domain or fragment, human, UniProt P45974 169-289, looked up)
chain: B3 chain with R53K, W54R
notes: as for B3
B5 gave a Kd (ubiquitin (Ub) [2]) of 100 µM.

B6: USP5-ZnF Y223F (domain or fragment, human, UniProt P45974 169-289, looked up)
chain: B3 chain with W54R, Y55F
notes: as for B3
B6 showed a Kd (ubiquitin (Ub) [2]) of 6.4 µM.

B7: ZnF domain of USP5 (USP5-ZnF, residues 169-289), wild type (domain or fragment, human, UniProt P45974 169-289, looked up)
chain: B3 chain with W54R
notes: USP5 (isopeptidase T, isoT), human, zinc finger (ZnF) domain, residues 169-289, cloned into pET-M; also called WT; source: E. coli BL21, purified (Ni-NTA agarose, size-exclusion chromatography)
With B7 the Kd (ubiquitin (Ub) [2]) was 2.3 µM.

B8: USP5-ZnF Y261F (domain or fragment, human, UniProt P45974 169-289, looked up)
chain: B3 chain with W54R, Y93F
notes: as for B3
B8 gave a Kd (ubiquitin (Ub) [2]) of 88 µM.
